Test results: patent US20240277823A1 (published 2024)

Key:
[1] = target: 6A5; assay: BLI; 500 nM antigen
[2] = target: 5G10; assay: BLI; 500 nM antigen

Kd [1]: < 1 pM
Kd [2]: < 1 pM
B1: LA0591 (other)
chain: VNPDQYCPASKKENHNIRIKRTLPPDFQLTEEWLRRLYDIATSASLTEGQIHGICGVCLLQTFQMLAELQEYHSHGPLQGGGYFFNTAPDTDPFDSFRQRYPELDTMLTDAATAYGPAYNTTRLLTLVSAMTMMPQYEWTPSREFTTRSDMHSHIRSLIDSPPGSIWLGLMQRRESDETLRWHALPILRTSQGLIVIQTRVSTMSFELYRLYLTPSTSIVQIINDYLEEADRTLTVLVTIQLEQAYQNLFDFMVSNMNCTGEGENRRGSGGYPTSATVNQCSGGRCALPNW
